Experimental data reported in WO1994018227A2.

Molecular target: natural affinity purified heavy chain class I K d molecules
Assay: binding inhibition experiment with radiolabelled ligands

Recombinant murine β2-microglobulin
affinity, fold lower than the human β2-microglobulin: 5 times lower
